# From patent US20020146804
# T1: mouse procaspase-14
# T1 chain: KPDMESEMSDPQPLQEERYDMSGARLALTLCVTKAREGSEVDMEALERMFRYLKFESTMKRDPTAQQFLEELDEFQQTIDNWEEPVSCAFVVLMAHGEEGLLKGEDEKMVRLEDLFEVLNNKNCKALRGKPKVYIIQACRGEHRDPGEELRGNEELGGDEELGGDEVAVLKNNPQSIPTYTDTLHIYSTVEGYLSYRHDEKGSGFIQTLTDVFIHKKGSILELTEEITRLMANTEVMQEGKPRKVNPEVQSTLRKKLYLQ
# T2: mouse procaspase-14
# T2 sequence: T1 chain
# B1: cytochrome c-activated caspase-7 in S-100 extract of human embryonic kidney 293 cells (protein)
# chain: AKPDRSSFVPSLFSKKKKNVTMRSIKTTRDRVPTYQYNMNFEKLGKCIIINNKNFDKVTGMGVRNGTDKDAEALFKCFRSLGFDVIVYNDCSCAKMQDLLKKASEEDHTNAACFACILLSHGEENVIYGKDGVTPIKDLTAHFRGDRCKTLLEKPKLFFIQACRGTELDDGIQADSGPINDTDANPRYKIPVEADFLFAYSTVPGYYSWRSPGRGSWFVQALCSILEEHGKDLEIMQILTRVNDRVARHFESQSDDPHFHEKKQIPCVVSMLTKELYFSQ
# B2: cytochrome c-activated caspase-3 in S-100 extract of human embryonic kidney 293 cells (protein)
# chain: SGISLDNSYKMDYPEMGLCIIINNKNFHKSTGMTSRSGTDVDAANLRETFRNLKYEVRNKNDLTREEIVELMRDVSKEDHSKRSSFVCVLLSHGEEGIIFGTNGPVDLKKITNFFRGDRCRSLTGKPKLFIIQACRGTELDCGIETDSGVDDDMACHKIPVEADFLYAYSTAPGYYSWRNSKDGSWFIQSLCAMLKQYADKLEFMHILTRVNRKVATEFESFSFDATFHAKKQIPCIVSMLTKELYFYH
# B3: cytochrome c-activated caspase-6 in S-100 extract of human embryonic kidney 293 cells (protein)
# chain: AFYKREMFDPAEKYKMDHRRRGIALIFNHERFFWHLTLPERRGTCADRDNLTRRFSDLGFEVKCFNDLKAEELLLKIHEVSTVSHADADCFVCVFLSHGEGNHIYAYDAKIEIQTLTGLFKGDKCHSLVGKPKIFIIQACRGNQHDVPVIPLDVVDNQTEKLDTNITEVDAASVYTLPAGADFLMCYSVAEGYYSHRETVNGSWYIQDLCEMLGKYGSSLEFTELLTLVNRKVSQRRVDFCKDPSAIGKKQVPCFASMLTKKLHFFPKSN
# B4: cytochrome c-activated caspase-9 in S-100 extract of human embryonic kidney 293 cells (protein)
# chain: MDEADRRLLRRCRLRLVEELQVDQLWDALLSRELFRPHMIEDIQRAGSGSRRDQARQLIIDLETRGSQALPLFISCLEDTGQDMLASFLRTNRQAAKLSKPTLENLTPVVLRPEIRKPEVLRPETPRPVDIGSGGFGDVGALESLRGNADLAYILSMEPCGHCLIINNVNFCRESGLRTRTGSNIDCEKLRRRFSSLHFMVEVKGDLTAKKMVLALLELAQQDHGALDCCVVVILSHGCQASHLQFPGAVYGTDGCPVSVEKIVNIFNGTSCPSLGGKPKLFFIQACGGEQKDHGFEVASTSPEDESPGSNPEPDATPFQEGLRTFDQLDAISSLPTPSDIFVSYSTFPGFVSWRDPKSGSWYVETLDDIFEQWAHSEDLQSLLLRVANAVSVKGIYKQMPGCFNFLRKKLFFKTS
# Target: T1, mouse procaspase-14
row,Molecule,"cleavage/activation of 35S labeled procaspase-14 in S-100 extracts activated by cytochrome c and dATP, SDS-PAGE and autoradiography"
1,B1,no cleavage/activation of ^35S labeled procaspase-14 was observed in S-100 extracts activated by cytochrome c and dATP
2,B2,no cleavage/activation of ^35S labeled procaspase-14 was observed in S-100 extracts activated by cytochrome c and dATP
3,B3,no cleavage/activation of ^35S labeled procaspase-14 was observed in S-100 extracts activated by cytochrome c and dATP
4,B4,no cleavage/activation of ^35S labeled procaspase-14 was observed in S-100 extracts activated by cytochrome c and dATP

# Test system: T2, mouse procaspase-14
row,Molecule,"processing (cleavage) of 35S labeled procaspase-14, SDS-PAGE and autoradiography"
1,purified recombinant caspase-10,"a significant amount of processing was observed when procaspase-14 was incubated with Granzyme B, caspase-10 and caspase-8, but not with other caspases"
2,purified recombinant caspase-8,"a significant amount of processing was observed when procaspase-14 was incubated with Granzyme B, caspase-10 and caspase-8, but not with other caspases"
3,purified Granzyme B,"a significant amount of processing was observed when procaspase-14 was incubated with Granzyme B, caspase-10 and caspase-8, but not with other caspases"
4,purified recombinant caspase-14,Some processing was also observed with recombinant caspase-14 itself
